Sequences and labels used below:
B1: Vasculin (Homo sapiens), Q86WP2 (parent)
chain: MAQHDFAPAWLNFPTPPSSTKSSLNFEKHSENFAWTENRYDVNRRRHNSSDGFDSAIGRPNGGNFGRKEKNGWRTHGRNGTENINHRGGYHGGSSRSRSSIFHAGKSQGLHENNIPDNETGRKEDKRERKQFEAEDFPSLNPEYEREPNHNKSLAAGVWEYPPNPKSRAPRMLVIKKGNTKDLQLSGFPVVGNLPSQPVKNGTGPSVYKGLVPKPAAPPTKPTQWKSQTKENKVGTSFPHESTFGVGNFNAFKSTAKNFSPSTNSVKECNRSNSSSPVDKLNQQPRLTKLTRMRTDKKSEFLKALKRDRVEEEHEDESRAGSEKDDDSFNLHNSNSTHQERDINRNFDENEIPQENGNASVISQQIIRSSTFPQTDVLSSSLEAEHRLLKEMGWQEDSENDETCAPLTEDEMREFQVISEQLQKNGLRKNGILKNGLICDFKFGPWKNSTFKPTTENDDTETSSSDTSDDDDV
partner: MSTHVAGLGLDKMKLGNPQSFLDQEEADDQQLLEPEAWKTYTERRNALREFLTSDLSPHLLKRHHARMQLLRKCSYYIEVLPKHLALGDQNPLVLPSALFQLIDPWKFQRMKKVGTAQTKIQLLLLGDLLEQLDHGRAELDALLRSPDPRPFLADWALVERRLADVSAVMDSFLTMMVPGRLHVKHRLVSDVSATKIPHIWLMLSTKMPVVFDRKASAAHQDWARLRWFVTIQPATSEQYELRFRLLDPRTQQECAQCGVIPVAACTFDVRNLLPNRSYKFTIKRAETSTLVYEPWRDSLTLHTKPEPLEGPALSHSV
B2: Pre-mRNA-splicing factor SPF27 (Homo sapiens), O75934 (parent)
chain: MAGTGLVAGEVVVDALPYFDQGYEAPGVREAAAALVEEETRRYRPTKNYLSYLTAPDYSAFETDIMRNEFERLAARQPIELLSMKRYELPAPSSGQKNDITAWQECVNNSMAQLEHQAVRIENLELMSQHGCNAWKVYNENLVHMIEHAQKELQKLRKHIQDLNWQRKNMQLTAGSKLREMESNWVSLVSKNYEIERTIVQLENEIYQIKQQHGEANKENIRQDF
partner: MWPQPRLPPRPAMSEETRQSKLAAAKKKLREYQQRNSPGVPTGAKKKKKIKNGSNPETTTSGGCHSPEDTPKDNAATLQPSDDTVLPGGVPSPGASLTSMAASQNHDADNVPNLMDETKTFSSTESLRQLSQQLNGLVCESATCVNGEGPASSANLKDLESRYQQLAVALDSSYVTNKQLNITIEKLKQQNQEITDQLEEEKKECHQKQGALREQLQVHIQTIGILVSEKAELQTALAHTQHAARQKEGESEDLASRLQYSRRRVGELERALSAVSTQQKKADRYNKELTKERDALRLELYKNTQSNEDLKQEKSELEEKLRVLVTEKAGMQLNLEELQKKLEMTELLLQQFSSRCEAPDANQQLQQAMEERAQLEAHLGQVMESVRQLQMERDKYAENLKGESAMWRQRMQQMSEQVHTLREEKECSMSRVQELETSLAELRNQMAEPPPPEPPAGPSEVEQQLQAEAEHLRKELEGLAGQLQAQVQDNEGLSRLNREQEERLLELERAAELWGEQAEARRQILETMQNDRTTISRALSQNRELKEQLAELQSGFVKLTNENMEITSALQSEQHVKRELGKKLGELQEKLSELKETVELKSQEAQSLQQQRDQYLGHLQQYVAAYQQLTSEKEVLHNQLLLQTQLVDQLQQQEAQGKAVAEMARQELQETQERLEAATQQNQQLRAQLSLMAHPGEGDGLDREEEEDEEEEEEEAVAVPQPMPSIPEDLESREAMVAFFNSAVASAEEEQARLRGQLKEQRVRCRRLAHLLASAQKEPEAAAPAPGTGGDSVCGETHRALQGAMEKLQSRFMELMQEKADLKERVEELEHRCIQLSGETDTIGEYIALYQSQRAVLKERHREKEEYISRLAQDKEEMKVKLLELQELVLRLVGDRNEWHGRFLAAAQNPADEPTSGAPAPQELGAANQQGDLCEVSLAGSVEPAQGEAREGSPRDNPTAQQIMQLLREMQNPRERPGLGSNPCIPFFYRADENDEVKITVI
B3: Microtubule-associated tumor suppressor candidate 2 (Homo sapiens), Q5JR59-3 (parent)
chain: MGHCCCKPYNCLQCLDKTNESALVKEKELSIELANIRDEVAFHTAKCEKLQKEKEELERRFEDEVKRLGWQQQAELQELEERLQLQFEAEMARLQEEHGDQLLSIRCQHQEQVEDLTASHDAALLEMENNHTVAITILQDDHDHKVQELMSTHELEKKELEENFEKLRLSLQDQVDTLTFQSQSLRDRARRFEEALRKNTEEQLEIALAPYQHLEEDMKSLKQVLEMKNQQIHEQEKKILELEKLAEKNIILEEKIQVLQQQNEDLKARIDQNTVVTRQLSEENANLQEYVEKETQEKKRLSRTNEELLWKLQTGDPTSPIKLSPTSPVYRGSSSGPSSPARVSTTPR
partner: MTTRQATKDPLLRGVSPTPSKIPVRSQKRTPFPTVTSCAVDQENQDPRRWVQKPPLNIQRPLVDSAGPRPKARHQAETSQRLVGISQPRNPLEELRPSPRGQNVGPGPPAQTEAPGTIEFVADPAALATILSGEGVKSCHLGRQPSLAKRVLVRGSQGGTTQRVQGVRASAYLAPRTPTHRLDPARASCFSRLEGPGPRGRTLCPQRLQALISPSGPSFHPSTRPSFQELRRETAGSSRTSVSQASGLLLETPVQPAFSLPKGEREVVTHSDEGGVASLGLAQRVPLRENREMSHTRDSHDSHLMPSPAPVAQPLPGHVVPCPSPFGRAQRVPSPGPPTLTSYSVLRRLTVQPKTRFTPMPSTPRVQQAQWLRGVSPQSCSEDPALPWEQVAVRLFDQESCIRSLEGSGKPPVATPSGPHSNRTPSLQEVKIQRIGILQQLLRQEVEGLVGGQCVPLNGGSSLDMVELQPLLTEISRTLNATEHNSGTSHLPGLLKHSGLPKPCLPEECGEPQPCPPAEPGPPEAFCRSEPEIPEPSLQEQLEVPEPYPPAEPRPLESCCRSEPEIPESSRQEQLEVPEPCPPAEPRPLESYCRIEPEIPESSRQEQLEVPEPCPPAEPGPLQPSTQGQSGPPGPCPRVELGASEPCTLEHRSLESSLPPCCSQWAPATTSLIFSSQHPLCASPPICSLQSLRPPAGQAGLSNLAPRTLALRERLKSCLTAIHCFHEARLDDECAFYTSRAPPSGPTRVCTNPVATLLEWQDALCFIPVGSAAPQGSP
B4: BRCA1-A complex subunit RAP80 (Homo sapiens), Q96RL1-2 (parent)
chain: MPRRKKKVKEVSESRNLEKKDVETTSSVSVKRKRRLEDAFIVISDSDGEEPKEENGLQKTKTKQSNRAKCLAKRKIAQMTEEEQFALALKMSEQEAREVNSQEEEEEELLRKAIAESLNSCRPSDASATRSRPLATGPSSQSHQEKTTDSGLTEGIWQLVPPSLFKGSHISQGNEAEEREEPWDHTEKTEEEPVSGSSGSWDQSSQPVFENVNVKSFDRCTGHSAEHTQCGKPQSSQGIVEETSEEGNSVPASQSVAALTSKRSLVLMPESSAEEITVCPETQLSSSETFDLEREVSPGSRDILDGVRIIMADKEVGNKEDAEKEVAISTFSSSNQVSCPLCDQCFPPTKIERHAMYCNGLMEEDTVLTRRQKEAKTKSDSGTAAQTSLDIDKNEKCYLCKSLVPFREYQCHVDSCLQLAKADQGDGPEGSGRACSTVEGKWQQRLKNPKEKGHSEGRLLSFLEQSEHKTSDADIKSSETGAFRVPSPGMEEAGCSREMQSSFTRRDLNESPVKSFVSISEATDCLVDFKKQVTVQPGSRTRTKAGRGRRRKF
partner: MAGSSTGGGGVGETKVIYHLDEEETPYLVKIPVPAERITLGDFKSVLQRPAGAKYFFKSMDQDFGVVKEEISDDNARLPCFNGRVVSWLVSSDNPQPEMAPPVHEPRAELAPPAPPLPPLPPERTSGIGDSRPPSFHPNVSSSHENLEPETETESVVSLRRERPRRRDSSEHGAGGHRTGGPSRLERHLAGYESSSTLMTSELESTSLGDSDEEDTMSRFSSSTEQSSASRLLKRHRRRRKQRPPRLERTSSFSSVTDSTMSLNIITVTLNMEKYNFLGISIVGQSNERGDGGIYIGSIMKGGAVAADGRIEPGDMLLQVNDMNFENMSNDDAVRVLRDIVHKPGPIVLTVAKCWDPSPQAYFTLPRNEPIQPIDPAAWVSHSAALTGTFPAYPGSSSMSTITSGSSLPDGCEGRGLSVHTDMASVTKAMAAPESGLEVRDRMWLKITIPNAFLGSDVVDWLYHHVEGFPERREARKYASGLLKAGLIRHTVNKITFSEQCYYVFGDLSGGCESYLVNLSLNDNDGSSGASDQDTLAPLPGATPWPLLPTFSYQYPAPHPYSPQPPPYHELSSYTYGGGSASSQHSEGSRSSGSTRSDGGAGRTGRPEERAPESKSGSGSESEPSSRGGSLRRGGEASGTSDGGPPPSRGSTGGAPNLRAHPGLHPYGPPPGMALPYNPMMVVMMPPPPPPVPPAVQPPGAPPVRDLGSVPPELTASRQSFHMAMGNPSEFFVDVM
B5: Cyclin-D1-binding protein 1 (Homo sapiens), O95273 (parent)
chain: MASATAPAAAVPTLASPLEQLRHLAEELRLLLPRVRVGEAQETTEEFNREMFWRRLNEAAVTVSREATTLTIVFSQLPLPSPQETQKFCEQVHAAIKAFIAVYYLLPKDQGITLRKLVRGATLDIVDGMAQLMEVLSVTPTQSPENNDLISYNSVWVACQQMPQIPRDNKAAALLMLTKNVDFVKDAHEEMEQAVEECDPYSGLLNDTEENNSDNHNHEDDVLGFPSNQDLYWSEDDQELIIPCLALVRASKACLKKIRMLVAENGKKDQVAQLDDIVDISDEISPSVDDLALSIYPPMCHLTVRINSAKLVSVLKKALEITKASHVTPQPEDSWIPLLINAIDHCMNRIKELTQSELEL
partner: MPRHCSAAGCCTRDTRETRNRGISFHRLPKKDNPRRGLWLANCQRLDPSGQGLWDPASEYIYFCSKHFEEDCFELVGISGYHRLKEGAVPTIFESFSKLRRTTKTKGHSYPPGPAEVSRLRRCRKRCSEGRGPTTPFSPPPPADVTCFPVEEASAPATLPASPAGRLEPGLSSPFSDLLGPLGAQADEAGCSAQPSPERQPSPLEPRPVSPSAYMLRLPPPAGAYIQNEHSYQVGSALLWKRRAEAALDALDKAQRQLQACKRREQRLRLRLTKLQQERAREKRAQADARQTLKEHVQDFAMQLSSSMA
B6: Cyclin-dependent kinase 4 (Homo sapiens), P11802 (parent)
chain: MATSRYEPVAEIGVGAYGTVYKARDPHSGHFVALKSVRVPNGGGGGGGLPISTVREVALLRRLEAFEHPNVVRLMDVCATSRTDREIKVTLVFEHVDQDLRTYLDKAPPPGLPAETIKDLMRQFLRGLDFLHANCIVHRDLKPENILVTSGGTVKLADFGLARIYSYQMALTPVVVTLWYRAPEVLLQSTYATPVDMWSVGCIFAEMFRRKPLFCGNSEADQLGKIFDLIGLPPEDDWPRDVSLPRGAFPPRGPRPVQSVVPEMEESGAQLLLEMLTFNPHKRISAFRALQHSYLHKDEGNPE
partner: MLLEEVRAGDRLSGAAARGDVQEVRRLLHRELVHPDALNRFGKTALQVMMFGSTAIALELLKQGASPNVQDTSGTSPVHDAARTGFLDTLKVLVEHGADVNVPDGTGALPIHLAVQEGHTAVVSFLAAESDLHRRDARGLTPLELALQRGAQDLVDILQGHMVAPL

The results in this text go back to IntAct's records for PubMed 31515488.

The variants in one test derive from B1. The following applies: with fnd11_human FNDC11, Q9BVV2.
T223A: the “effect of a mutation on the interaction” value is on record as “with no effect”.

Variants of B2 are the subject of another test. The following applies: with goga2_human GOLGA2, Q08379.
As for N139S, the “effect of a mutation on the interaction” value is on record as “disrupting interaction strength”.

The variants in the next test derive from B3. The following applies: with troap_human TROAP.
For A89V, the “effect of a mutation on the interaction” value is “with no effect”.

A further test covers variants of B4. The conditions noted are these: with dvl2_human DVL2, O14641.
For the variant G48E, the “effect of a mutation on the interaction” value is recorded as “with no effect”.

A further test covers variants of B5. The following applies: with thap7_human THAP7, Q9BT49.
For I277T, the “effect of a mutation on the interaction” value is recorded as “disrupting interaction strength”.

Variants of B6 are the subject of another test. The following applies: with cdn2d_human CDKN2D.
For S52N, the “effect of a mutation on the interaction” value was “with no effect”.
